Results reported in PMC12793716, “Linked dimers of the AAA+ ATPase Msp1 reveal energetic demands and mechanistic plasticity for substrate extraction from lipid bilayers” (Febs Letters, 2025).
Numbering of substitutions follows the chain as printed. Names may count otherwise.

B1: His6‐TEV‐Msp1 E193Q Monomer (enzyme, UniProt P28737 33-362, looked up)
chain: DVESGPLSGKSRESKAKQSLQWEKLVKRSPALAEVTLDAYERTILSSIVTPDEINITFQDIGGLDPLISDLHESVIYPLMMPEVYSNSPLLQAPSGVLLYGPPGCGKTMLAKALAKESGANFISIRMSSIMDKWYGESNKIVDAMFSLANKLQPCIIFIDQIDSFLRERSSTDHEVTATLKAEFMTLWDGLLNNGRVMIIGATNRINDIDDAFLRRLPKRFLVSLPGSDQRYKILSVLLKDTKLDEDEFDLQLIADNTKGFSGSDLKELCREAALDAAKEYIKQKRQLIDSGTIDVNDTSSLKIRPLKTKDFTKKLRMDATSTLSSQPLD
notes: Msp1 with the Walker B mutation E193Q, soluble construct: deletion of the first 32 residues as stated for the soluble constructs; A TEV site follows the His6 tag; No Strep tag; also called EQ; EQ monomer; source: E. coli BL21 pRIL, purified (Ni-NTA)
B2: His6‐WT‐EQ‐2xStrep Dimer (covalently linked Msp1 dimer, soluble) (enzyme)
chain: DVESGPLSGKSRESKAKQSLQWEKLVKRSPALAEVTLDAYERTILSSIVTPDEINITFQDIGGLDPLISDLHESVIYPLMMPEVYSNSPLLQAPSGVLLYGPPGCGKTMLAKALAKESGANFISIRMSSIMDKWYGESNKIVDAMFSLANKLQPCIIFIDEIDSFLRERSSTDHEVTATLKAEFMTLWDGLLNNGRVMIIGATNRINDIDDAFLRRLPKRFLVSLPGSDQRYKILSVLLKDTKLDEDEFDLQLIADNTKGFSGSDLKELCREAALDAAKEYIKQKRQLIDSGTIDVNDTSSLKIRPLKTKDFTKKLRMDATSTLSSQPLDASGSGGSEASASAGAAGSGDGSGSGGSEGGTSGATDVESGPLSGKSRESKAKQSLQWEKLVKRSPALAEVTLDAYERTILSSIVTPDEINITFQDIGGLDPLISDLHESVIYPLMMPEVYSNSPLLQAPSGVLLYGPPGCGKTMLAKALAKESGANFISIRMSSIMDKWYGESNKIVDAMFSLANKLQPCIIFIDQIDSFLRERSSTDHEVTATLKAEFMTLWDGLLNNGRVMIIGATNRINDIDDAFLRRLPKRFLVSLPGSDQRYKILSVLLKDTKLDEDEFDLQLIADNTKGFSGSDLKELCREAALDAAKEYIKQKRQLIDSGTIDVNDTSSLKIRPLKTKDFTKKLRMDATSTLSSQPLD
notes: Msp1, subunit 1, wild type, deletion of the first 32 residues to remove the TMD; 35-residue flexible linker between the two subunits; Msp1, subunit 2, Walker B mutant E193Q, deletion of the first 32 residues to remove the TMD; Two Msp1 subunits on one chain; on SEC a mixture of the single chain (dimer) and the pseudohexamer (three chains); also called WT‐EQ dimer; source: E. coli BL21 pRIL, …
B3: His6‐EQ‐WT‐2xStrep Dimer (covalently linked Msp1 dimer, soluble) (enzyme)
chain: B2 chain with E161Q, Q526E
notes: Msp1, subunit 1, Walker B mutant E193Q, deletion of the first 32 residues to remove the TMD; 35-residue flexible linker between the two subunits; Msp1, subunit 2, wild type, deletion of the first 32 residues to remove the TMD; Two Msp1 subunits on one chain; on SEC a mixture of the single chain (dimer) and the pseudohexamer (three chains); also called EQ‐WT dimer; source: E. coli BL21 pRIL, …

Target: the molecule itself
Assay: SEC; analytical SEC, S200 Increase 3.2/300 GL, 20 mM Tris pH 7.5, 100 mM NaCl, 0.5 mM TCEP; 0.1 mL of 1.2 mg/mL (5 uM hexamer/pseudohexamer) Msp1 with 2 mM ATP, 2 mM MgCl2; 0.1 mL/min

Row | Protein | stoichiometry N
1 | B1 | 6
2 | B2 | 3
3 | B3 | 3
